Test results reported in IntAct's records for PubMed 20485439.

B1: Eukaryotic translation initiation factor 5 (Saccharomyces cerevisiae), P38431 (parent)
chain: MSINICRDNHDPFYRYKMPPIQAKVEGRGNGIKTAVLNVADISHALNRPAPYIVKYFGFELGAQTSISVDKDRYLVNGVHEPAKLQDVLDGFINKFVLCGSCKNPETEIIITKDNDLVRDCKACGKRTPMDLRHKLSSFILKNPPDSVSGSKKKKKAATASANVRGGGLSISDIAQGKSQNAPSDGTGSSTPQHHDEDEDELSRQIKAAASTLEDIEVKDDEWAVDMSEEAIRARAKELEVNSELTQLDEYGEWILEQAGEDKENLPSDVELYKKAAELDVLNDPKIGCVLAQCLFDEDIVNEIAEHNAFFTKILVTPEYEKNFMGGIERFLGLEHKDLIPLLPKILVQLYNNDIISEEEIMRFGTKSSKKFVPKEVSKKVRRAAKPFITWLETAESDDDEEDDE
B2: Eukaryotic translation initiation factor 5 (Saccharomyces cerevisiae), P38431 (parent)
chain: B1 chain
partner: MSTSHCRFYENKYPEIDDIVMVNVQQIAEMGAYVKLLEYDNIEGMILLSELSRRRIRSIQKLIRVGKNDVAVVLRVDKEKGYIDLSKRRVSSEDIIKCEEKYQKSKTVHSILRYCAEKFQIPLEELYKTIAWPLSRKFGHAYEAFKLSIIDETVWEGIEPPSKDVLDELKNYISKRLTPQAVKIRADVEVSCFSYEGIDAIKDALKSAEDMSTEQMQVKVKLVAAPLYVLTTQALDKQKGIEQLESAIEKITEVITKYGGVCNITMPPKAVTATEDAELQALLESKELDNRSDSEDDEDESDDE

Variants of: B1
Details: with if2g_yeast GCD11, P32481
Sequence of if2g_yeast GCD11, P32481 (P32481 whole entry): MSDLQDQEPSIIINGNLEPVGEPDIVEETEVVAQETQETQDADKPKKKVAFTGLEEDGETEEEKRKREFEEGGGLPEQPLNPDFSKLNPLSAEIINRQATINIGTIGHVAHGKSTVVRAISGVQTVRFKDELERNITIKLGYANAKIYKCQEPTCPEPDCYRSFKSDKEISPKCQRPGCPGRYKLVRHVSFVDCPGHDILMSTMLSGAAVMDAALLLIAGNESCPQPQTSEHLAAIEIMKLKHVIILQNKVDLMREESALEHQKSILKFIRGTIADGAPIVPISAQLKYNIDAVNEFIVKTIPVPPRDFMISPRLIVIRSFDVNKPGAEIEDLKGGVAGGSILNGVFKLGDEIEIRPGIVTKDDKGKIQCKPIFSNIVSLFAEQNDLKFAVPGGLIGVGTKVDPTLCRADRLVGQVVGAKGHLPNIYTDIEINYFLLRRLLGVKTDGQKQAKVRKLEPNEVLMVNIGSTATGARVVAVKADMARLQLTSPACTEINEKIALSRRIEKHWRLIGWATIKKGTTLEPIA

| Variant | effect of a mutation on the interaction |
| --- | --- |
| W391F | decreasing interaction |

Variants of: B2
Details: with if2a_yeast SUI2, P20459

| Variant | effect of a mutation on the interaction |
| --- | --- |
| W391F | decreasing interaction |
